Measured values published in patent US20080311130A1 (IMMUNE DISEASE INSTITUTE, published 2008).

Experiments:
[1] = target: T1, ICAM-1-Fcγ (ICAM-1 residues of 1-480 fused to the Fc of human IgG, R&D Systems) (human, UniProt P05362 28-480); assay: SPR (Biacore)
T1 construct: range 1-480; Bought (R&D Systems); also called ICAM-1-Fcγ chimera; not shown: Fc of human IgG
Procedure: Sensograms show the binding of the I domain mutants (F292A, F265S, F292G, and F265S/F292G) to ICAM-1-Fcγ-coated sensor chip. In all sensograms, the signals from the control surface, as described in Materials and Methods, were subtracted. I domain mutants were injected in a series of concentrations starting from 100 μM for F292A and 1 μM for F292G, F265S, and F265S/F292G, and the subsequent concentrations were by two-fold serial dilutions.
(§1) Mutant I domains (F265S, F292A, F292G, F265S/F292G, and HA) with residues of Asn-129 to Tyr-307 were expressed in Escherichia coli BL21 (DE3) (Novagen), refolded, and purified as described previously⁶. ICAM-1-Fcγ-coupled or mock-coupled CM5 sensor chip as control was prepared using the amine coupling kit (BIAcore, Piscataway, N.J.), as described previously³³. Surface plasmon resonance was measured using Biacore 3000. I domains were injected over the chip in 20 mM Tris HCl, pH 8.0, 150 mM NaCl, 10 mM MgCl₂, at a flow rate of 10 μl/min at room temperature.
(§2) The values shown in the table are mean ± SD from three independent measurements. The parameters of kₒₙ, koff, and Kd were calculated by fitting the 1:1 Langmuir binding model to the Biacore sensogram. The values were from the previous studies ⁶.

[2] = target: T1, ICAM-1-Fcγ (ICAM-1 residues of 1-480 …); assay: cell-based or functional assay
[3] = target: T1, ICAM-1-Fcγ (ICAM-1 residues of 1-480 …); assay: SPR (Biacore); wild-type value from a previous study
[4] = target: T1, ICAM-1-Fcγ (ICAM-1 residues of 1-480 …); assay: SPR (Biacore 3000), I domain injected over ICAM-1-Fcγ-coupled CM5 chip, 10 mM MgCl2
Procedure: as §1
Several of the most activating mutants were expressed in Escherichia coli and refolded in order to measure the kinetics of binding to ICAM-1 by surface plasmon resonance (FIG. 2). Data are shown in Table 2, and for comparison are shown kinetics measured for the wild-type and disulfide-bonded IA and HA mutants in a previous study⁶, and for the same disulfide-bonded HA mutant in the current study.
as §2

T1 sequence (P05362 28-480 limits assumed, form in doubt): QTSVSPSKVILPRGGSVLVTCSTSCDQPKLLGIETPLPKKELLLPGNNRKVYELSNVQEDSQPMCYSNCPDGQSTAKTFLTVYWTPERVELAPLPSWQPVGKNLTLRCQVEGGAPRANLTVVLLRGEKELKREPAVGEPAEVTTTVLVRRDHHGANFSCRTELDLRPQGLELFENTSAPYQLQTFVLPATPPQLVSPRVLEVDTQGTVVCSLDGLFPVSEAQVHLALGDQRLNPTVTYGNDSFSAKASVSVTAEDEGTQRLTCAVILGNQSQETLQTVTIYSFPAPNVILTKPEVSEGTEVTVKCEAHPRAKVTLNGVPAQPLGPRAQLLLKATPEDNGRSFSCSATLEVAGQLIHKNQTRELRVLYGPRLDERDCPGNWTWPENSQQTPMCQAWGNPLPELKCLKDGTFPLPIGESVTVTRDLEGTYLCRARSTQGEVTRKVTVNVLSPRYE

fold decrease in dissociation rate compared to the F265S and F292G single mutants [1]: 10 fold
fold higher binding affinity than the HA mutant [1]: 20 fold
fold higher kon than the single mutants [1]: 2 fold
fold slower dissociation rate than the HA I domain [1]: ~100 fold
IC50 in blocking the adhesion of PMA activated lymphocytes to ICAM-1 coated surfaces [2]: 350 nM
potency relative to the HA I domain in lymphocyte adhesion to ICAM-1, transmigration and homotypic aggregation [2]: 10 fold
fold increase in affinity compared to the wild-type I domain [3]: 200000 fold
Kd [4]: 6 nM
koff [4]: 0.00015 s⁻¹
kon [4]: 25000 M⁻¹ s⁻¹
B1: soluble αL I domain double mutant F265S/F292G, Asn-129 to Tyr-307 (receptor)
chain: NVDLVFLFDGSMSLQPDEFQKILDFMKDVMKKLSNTSYQFAAVQFSTSYKTEFDFSDYVKWKDPDALLKHVKHMLLLTNTFGAINYVATEVFREELGARPDATKVLIIITDGEATDSGNIDAAKDIIRYIIGIGKHSQTKESQETLHKFASKPASEFVKILDTGEKLKDLFTELQKKIY
